Laboratory results reported in publication doi:10.1101/2021.02.05.429362 (bioRxiv, 2021).
Where “and” joins values, the source holds several entries; their conditions need not be identical. Identical values can stand only once. Like-named read-outs stand apart in the source and are kept apart here. Where no end group is shown, it is not given here.

Key:
[1] = biological target: T1, G3BP1-NTF2 (residues 1-139) (human (by the printed UniProt entry …)); experiment: nanoDSF
[2] = biological target: T1, G3BP1-NTF2 (residues 1-139); experiment: nanoDSF; remark: listed apart in the source
[3] = biological target: T1, G3BP1-NTF2 (residues 1-139); experiment: nanoDSF; remark: listed apart in the source
[4] = biological target: T1, G3BP1-NTF2 (residues 1-139); experiment: ITC
[5] = biological target: T1, G3BP1-NTF2 (residues 1-139); experiment: ITC; remark: listed apart in the source
[6] = biological target: G3BP1-NTF2 H31A (human (by the printed UniProt entry …, UniProt Q13283, H31A)); experiment: ITC
Sequence of G3BP1-NTF2 H31A (human (Q13283 1-139 H31A): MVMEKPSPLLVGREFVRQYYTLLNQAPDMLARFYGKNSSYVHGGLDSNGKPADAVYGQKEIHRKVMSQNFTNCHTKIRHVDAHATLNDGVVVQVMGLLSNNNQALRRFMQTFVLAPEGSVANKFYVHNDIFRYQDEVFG

[7] = biological target: T1, G3BP1-NTF2 (residues 1-139); experiment: ITC; remark: listed apart in the source

Kd [4]	Kd [5]	Kd [6]	dH [6]	dH [4]	Kd [7]	Binder	dTm [1]	dTm [2]	dTm [3]
						RQRVQDLMAQMQGPYNFIQDSMLDFENQTLD [Caprin-1^356-386 peptide]	1.3 °C	1.5 °C	4 °C
~20 µM						{GFP}-RQRVQDLMAQMQGPYNFIQDSMADFENQTLD (domain or fragment) [GFP-Caprin-1^356-386 L378A]			
	0.5 µM	3 µM	-75.3 kJ/mol	-71.1 ± 4.18 kJ/mol	1.5 ± 0.5 µM	MALHSPQYIFGDFSPDEFNQFFVTPRSS (domain or fragment) [GFP-USP10^1-28]			
	1.4 µM	15 µM	-66.9 kJ/mol	-75.3 kJ/mol and -71.1 kJ/mol	4 ± 2 µM	{GFP}-RQRVQDLMAQMQGPYNFIQDSMLDFENQTLD (domain or fragment) [GFP-Caprin-1^356-386]			
